Tests used:
MC-1RB = experiment: cAMP functional receptor assay in COS-7 cells transfected with MC-1RB expression plasmids; assay type: cell-based, human; conditions: for approximate rank order of potency in eliciting the cAMP response: COS-7 cells transiently expressing MC-R1B; for rise in intracellular cAMP formation: maximum agonist concentration, compared to background response in sham-transfected COS-7 cells
Method: cAMP Functional Receptor Assay—Receptor-mediated stimulation of cyclic AMP (cAMP) formation was assayed in COS-7 cells transfected with MC-1RB expression plasmids. Cells expressing MC-1RB were dissociated from tissue culture flasks by rinsing with Ca and Mg free phosphate buffered saline (Life Technologies, Gaithersburg, Md.) and detached following 5 min. incubation with enzyme-free dissociation buffer (Specialty Media, Lavellette, N.J.). Cells were collected by centrifugation and resuspended in Earle's Balanced Salt Solution (EBSS) (Life Technologies, Gaithersburg, Md.) with additions of 10 mM HEPES pH 7.5, 5 mM MgCl2, 1 mM glutamine and 1 mg/ml bovine serum albumin. Cells are counted and diluted to 2 to 4×10^6/ml. The phosphodiesterace inhibitor 3-isobutyl-1-methylxanthine was added at a concentration of 0.6 mM. Test peptides were diluted in EBSS with above additions and 10% DMSO; 0.1 vol of compounds added to 0.9 vol of cells. After room temperature incubation for 40 min., cells are lysed by incubation at 100° C. for 5 min. to release accumulated cAMP. cAMP is measured in an aliquot of the cell lysate with the Amersham (Arlington Heights, Ill.) cAMP detection assay (RPA556).
Previous studies (Mountjoy, et al., 1992, Science 257:1248-1251 [see also U.S. Pat. No. 5,532,347]; Chhajlani and Wikberg, 1992, FEBS Letters 309:417-420) has documented that activation of the MC-1RA isoform by melanocortin agonists results in an elevation of intracellular cAMP production through the coupling of G-proteins to activation of membrane-bound adenylate cyclase.

[1] = molecular target: human MC-R1B receptor (splice variant of the human melanocortin-1 receptor, 382 amino acids) (human); experiment: cell-based or functional assay
[2] = molecular target: human MC-R1B receptor (splice variant of the human melanocortin-1 receptor, 382 amino acids) (human); experiment: radioligand binding, membranes of COS-7 cells expressing MC-R1B
[3] = molecular target: human MC-R1B receptor (splice variant of the human melanocortin-1 receptor, 382 amino acids) (human); experiment: displacement of 200 pM [125I]-NDP-αMSH from crude membranes of COS-7 cells expressing human MC-R1B

| Molecule | approximate rank order of potency in eliciting the cAMP response (MC-1RB) | rise in intracellular cAMP formation (MC-1RB) | intracellular cAMP formation in COS-7 cells transiently expressing MC-R1B [1] | IC50 [3] | other results |
| --- | --- | --- | --- | --- | --- |
| NDP-αMSH | MT-II>NDP-MSH>SHU-9119>αMSH>βMSH>γMSH | ~3 fold | – | – | – |
| γMSH (from UniProt P01189 77-88) (peptide) | – | – | 3 fold | – | – |
| βMSH (from UniProt P01189 213-234) (peptide) | – | – | 3 fold | – | – |
| SHU-9119 | – | ~3 fold | – | – | – |
| MT-II | MT-II>NDP-MSH>SHU-9119>αMSH>βMSH>γMSH | ~3 fold | – | – | – |
| [125I]-NDP-αMSH (peptide) | – | – | – | – | specific binding (percent of total binding) (% of total binding) [2]: > 90 |
| αMSH | MT-II>NDP-MSH>SHU-9119>αMSH>βMSH>γMSH | ~3 fold | – | – | – |
| NDP-αMSH (unlabelled) (peptide) | – | – | 3 fold | 700 pM | – |
| SHU-9119 (peptide) | – | – | 3 fold | 700 pM | – |
| MT-II (peptide) | – | – | 3 fold | 200 pM | – |
| βMSH: β-melanocyte stimulating hormone, melanocortin peptide derived from the POMC gene | MT-II>NDP-MSH>SHU-9119>αMSH>βMSH>γMSH | ~3 fold | – | – | – |
| SYSMEHFRWGKPVGKKRRPVKVYPNGAEDESAEAFPLEF (peptide, UniProt P01189 138-176, looked up) [ACTH] | – | – | – | 5000 pM | – |
| SYSMEHFRWGKPV (peptide, UniProt P01189 138-150, looked up) [αMSH] | – | – | 3 fold | 5000 pM | – |
